This data set in a line: self-splicing fitness, log relative to wild type (ln ratio); higher = more splicing; Tetrahymena group I intron in knt gene, E. coli kanamycin selection, DiMSum; sequences stand for … in CUCUCU…GGAGGGAAAAGUUAUCAGGCAUGCACCUGGUAGCUAGUCUUUAAACCAAUAGAUUGCAUCGGUUUAAAAGGCAAGACCGUCAAAUUGCGGGAAAGGGGUCAACAGCCGUUCAGUACCAAGUCUCAGGGGAAACUUUGAGAUGGCCUUGCAAAGGGUAUGGUAAUAAGCUGACGGACAUGGUCCUAACCACGCAGCCAAGUCCUAAGUCAACAGAUCUUCUGUUGAUAUGGAUGCAGUUCACAGACUAAAUGUCGGUCGGGGAAGAUGUAUUCUUCUCAUAAGAUAUAGUCGGACCUCUCCUUAAUGGGAGCUAGCGGAUGAAGUGAUGCAACACUGGAGCCGCUGGGAACUAAUUUGUAUGCGAAAGUAUAUUGAUUAGUUUUGGAGUACUCGUGGUCG
A digest of the protocol:
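Library with all eight P1ex-region intron nucleotides randomised, intron inside the knt kanamycin-resistance gene on pET-22b(+), in E. coli BL21(DE3). Cells grew overnight at 37°C or 30°C on LB agar with or without 25 μg/mL kanamycin (plus 100 μg/mL carbenicillin, 50 μM IPTG, 0.2% rhamnose), in six replicate transformations. Pooled colonies were amplicon-sequenced on Illumina HiSeq 2500. DiMSum fitness is the error-weighted combination of wild-type-normalised replicate fold changes, kanamycin versus none.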

± gives the uncertainty stated by the source.

For the sequence ACUUAGCAAUAUUACGAAAC, the “self-splicing fitness (ln)” value (30 °C) is -3.64 ± 0.32 and the “self-splicing fitness (ln)” value (37 °C) is -1.65 ± 0.24.

Consider GUAUAGCAAUAUUACGACUA, for which the “self-splicing fitness (ln)” value (30 °C) is -0.438 ± 0.21 and the “self-splicing fitness (ln)” value (37 °C) was 0.00698 ± 0.23.

In the case of AGCGAGCAAUAUUACGCUUG, the “self-splicing fitness (ln)” value was -3.61 ± 0.15 (30 °C) and -1.69 ± 0.15 (37 °C).

On to UGACAGCAAUAUUACGUCGG, for which the “self-splicing fitness (ln)” value by setting is: (30 °C) -1.72 ± 0.094; (37 °C) -0.734 ± 0.11.

As to CGUUAGCAAUAUUACGUGGA, the “self-splicing fitness (ln)” value (30 °C) is -2.98 ± 0.18 and the “self-splicing fitness (ln)” value (37 °C) is -1.68 ± 0.13.

ACCCAGCAAUAUUACGACGC: the “self-splicing fitness (ln)” value (30 °C) turned out to be 0.24 ± 0.085 and the “self-splicing fitness (ln)” value (37 °C) amounted to 0.483 ± 0.11.

Turning to UUGAAGCAAUAUUACGCUUU, the “self-splicing fitness (ln)” value (30 °C) was -3.5 ± 0.23 and the “self-splicing fitness (ln)” value (37 °C) was -2.56 ± 0.36.

CAUAAGCAAUAUUACGACAG: the “self-splicing fitness (ln)” value was -0.32 ± 0.072 (30 °C) and 0.334 ± 0.09 (37 °C).

Turning to AGAGAGCAAUAUUACGGCGC, the “self-splicing fitness (ln)” value (37 °C) was -2.13 ± 0.35.

On to UGACAGCAAUAUUACGAAUA, for which the “self-splicing fitness (ln)” value was -1.26 ± 0.13 (30 °C) and -0.589 ± 0.14 (37 °C).

Turning to AGUCAGCAAUAUUACGGUGA, the “self-splicing fitness (ln)” value runs as follows: (30 °C) -1.87 ± 0.12; (37 °C) -0.192 ± 0.096.

Consider GCACAGCAAUAUUACGCAAA, for which the “self-splicing fitness (ln)” value is, setting by setting: (30 °C) -1.72 ± 0.15; (37 °C) -0.898 ± 0.16.

Regarding AGGAAGCAAUAUUACGAACC, the “self-splicing fitness (ln)” value (30 °C) is -0.283 ± 0.29 and the “self-splicing fitness (ln)” value (37 °C) is -0.131 ± 0.3.

Take UUUAAGCAAUAUUACGCCUA: the “self-splicing fitness (ln)” value by setting is: (30 °C) -1.34 ± 0.21; (37 °C) 0.351 ± 0.21.

Regarding AGGAAGCAAUAUUACGGGUC, the “self-splicing fitness (ln)” value was -3 ± 0.32 (30 °C) and -2.31 ± 0.29 (37 °C).

As for GACUAGCAAUAUUACGUUUA, the “self-splicing fitness (ln)” value reads like this: (30 °C) -1.05 ± 0.094; (37 °C) -0.651 ± 0.11.

In the case of GUAUAGCAAUAUUACGGUAA, the “self-splicing fitness (ln)” value runs as follows: (30 °C) -2.59 ± 0.23; (37 °C) -1.24 ± 0.15.

As to ACGAAGCAAUAUUACGGGUC, the “self-splicing fitness (ln)” value was -4.49 ± 0.29 (30 °C) and -2.34 ± 0.23 (37 °C).

As for ACGCAGCAAUAUUACGCCAG, the “self-splicing fitness (ln)” value by setting is: (30 °C) -2.82 ± 0.22; (37 °C) -2.07 ± 0.28.

With AAUCAGCAAUAUUACGGAUG, the “self-splicing fitness (ln)” value by setting is: (30 °C) -0.144 ± 0.066; (37 °C) 0.153 ± 0.085.

With AUAGAGCAAUAUUACGGUCC, the “self-splicing fitness (ln)” value (30 °C) is -2.61 ± 0.38.

For the sequence AACCAGCAAUAUUACGCAGU, the “self-splicing fitness (ln)” value (30 °C) is -2.6 ± 0.11 and the “self-splicing fitness (ln)” value (37 °C) is -1.35 ± 0.11.

For the sequence CCGAAGCAAUAUUACGGAAC, the “self-splicing fitness (ln)” value (30 °C) is -2.82 ± 0.28 and the “self-splicing fitness (ln)” value (37 °C) was -2.03 ± 0.26.

In the case of AUGUAGCAAUAUUACGAUUA, the “self-splicing fitness (ln)” value by setting is: (30 °C) -0.6 ± 0.14; (37 °C) 0.00536 ± 0.13.

With AGGUAGCAAUAUUACGCCGA, the “self-splicing fitness (ln)” value reads like this: (30 °C) -0.983 ± 0.019; (37 °C) -0.334 ± 0.034.

In the case of GAAGAGCAAUAUUACGGAUA, the “self-splicing fitness (ln)” value (30 °C) is -2.15 ± 0.22 and the “self-splicing fitness (ln)” value (37 °C) was -2.85 ± 0.43.

Consider GCAAAGCAAUAUUACGCCCU, for which the “self-splicing fitness (ln)” value (30 °C) was -0.279 ± 0.2 and the “self-splicing fitness (ln)” value (37 °C) was 0.0848 ± 0.16.

With CGGAAGCAAUAUUACGGCAG, the “self-splicing fitness (ln)” value is, setting by setting: (30 °C) -0.0767 ± 0.11; (37 °C) 0.445 ± 0.13.

In the case of GUUCAGCAAUAUUACGGUAU, the “self-splicing fitness (ln)” value (30 °C) was -0.357 ± 0.062 and the “self-splicing fitness (ln)” value (37 °C) is 0.309 ± 0.073.

CGAGAGCAAUAUUACGGGUU: where the note is “37 °C”, the “self-splicing fitness (ln)” value is -2.27 ± 0.5.

GCAGAGCAAUAUUACGAGAU: the “self-splicing fitness (ln)” value was -2.04 ± 0.29 (30 °C) and -2.15 ± 0.39 (37 °C).

For GUGAAGCAAUAUUACGAGGU, the “self-splicing fitness (ln)” value runs as follows: (30 °C) -1.83 ± 0.29; (37 °C) -1.36 ± 0.26.

On to UUACAGCAAUAUUACGGACU, for which the “self-splicing fitness (ln)” value reads like this: (30 °C) -2.05 ± 0.17; (37 °C) -1.9 ± 0.17.

For GCUCAGCAAUAUUACGAGAC, the “self-splicing fitness (ln)” value (30 °C) is -3.42 ± 0.32 and the “self-splicing fitness (ln)” value (37 °C) was -0.338 ± 0.2.

For the origin of these results see the supplement of paper PMC7877785.
